One experiment has as its target T1, 多肽HPV16E7-5 (HPV16).
T1 construct: Peptide of HPV16 E7
T1 peptide: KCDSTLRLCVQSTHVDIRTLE
Kind of experiment: ELISA, peptide coated at 2μg/ml. For orientation: An ELISA detects its analyte on a solid surface through an enzyme-linked reagent.

For another experiment, the target named is T2, 多肽His-Vac (HPV16).
T2 peptide: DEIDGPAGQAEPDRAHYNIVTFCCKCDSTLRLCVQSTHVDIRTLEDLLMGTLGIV
Kind of experiment: ELISA, peptide coated at 2μg/ml.

In a further experiment the target is T3, 多肽HPV16E7-1 (HPV16).
T3 construct: Peptide of HPV16 E7
T3 peptide: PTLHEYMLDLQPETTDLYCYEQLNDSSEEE
Kind of experiment: ELISA, peptide coated at 2μg/ml.

For a further experiment, the target named is T4, 多肽HPV16E7-27 (HPV16).
T4 construct: Peptide of HPV16 E7
T4 peptide: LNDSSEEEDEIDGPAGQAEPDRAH
The experiment is described as follows: ELISA, peptide coated at 2μg/ml.

The target in a further experiment is T5, 重组蛋白His-HPV16E7 (HPV16, UniProt P03129 2-98).
T5 construct: also called His-HPV16E7融合蛋白; His-HPV16E7重组蛋白; not shown: His tag
T5 sequence: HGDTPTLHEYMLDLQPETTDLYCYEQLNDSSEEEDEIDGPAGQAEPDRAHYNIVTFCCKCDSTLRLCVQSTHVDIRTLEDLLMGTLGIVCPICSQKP
Kind of experiment: indirect ELISA, antigen coated at 0.5μg/ml, antibody 0.1μg/ml.

The next experiment has as its target T6, His-HPV18E7融合蛋白 (HPV18, UniProt P06788 1-105).
T6 construct: not shown: His tag
T6 chain: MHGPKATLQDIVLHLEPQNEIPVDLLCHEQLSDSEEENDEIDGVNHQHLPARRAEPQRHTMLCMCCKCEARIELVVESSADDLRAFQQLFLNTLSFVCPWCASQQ
Described as above.

The next experiment concerns the target T7, 细胞内源的HPV16E7蛋白 (HPV16, UniProt P03129 2-98).
T7 construct: Endogenous, intracellular HPV16 E7 in fixed and permeabilised CaSki cells (ICC) or in formalin-fixed paraffin sections of cervical tissue (IHC); as printed it has no initial Met; also called 宫颈癌细胞株CaSki表达的HPV16E7蛋白; 宫颈癌组织中的HPV16E7蛋白
T7 sequence: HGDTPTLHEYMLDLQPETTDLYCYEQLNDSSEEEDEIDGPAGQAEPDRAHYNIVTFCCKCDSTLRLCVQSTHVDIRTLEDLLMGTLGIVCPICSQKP
Kind of experiment: immunocytochemistry on fixed, permeabilised CaSki cells (C-33A as negative control).

B1: 兔源单克隆抗体RAB-034 (antibody, V domains shown)
VH: QSLEESGGRLVTPGTPLTLTCTVSGIDLSSYAMGWVRQAPGEGLDWIGSIGSSGRTYYANWAKGRFTISKTSSTTVDLKMTSLTTEDTATYFCARGVVNRSDIWGPGTLVTVSS
VL: DPMLTQTASSVSAAVGGTVTISCQSSQSVYDNNWLGWYQQKPGQPPKLLIYGASNLESGVPSRFKGSGSGTQFTLTISDVQCDDAATYYCAGGYSGNRYVFGGGTEVVVK
notes: also called 抗HPV16E7兔单抗RAB-034
As to B1, the binding result with 多肽HPV16E7-5 was “no binding (tested: 1μg/ml)”; with 多肽His-Vac, “no binding (tested: 1μg/ml)”; with 多肽HPV16E7-1, “no binding (tested: 1μg/ml)”; with 多肽HPV16E7-27 it was “no binding (tested: 1μg/ml)”; in the experiment with 重组蛋白His-HPV16E7 it was “binds”; with His-HPV18E7融合蛋白, “binds”. Besides, the binding result with 细胞内源的HPV16E7蛋白 is “binds”.

The values above are taken from patent CN105131113A (ATTOBIO BIOPHARMACEUTICAL SUZHOU CO LTD, dated 2015).
